Measured values from patent US20240252667A1 (ARMAGEN, published 2024).
Where “and” joins values, the source holds several entries; their conditions need not be identical. Equal entries are not always repeated.

Tests used:
[1] = target: T1, human insulin receptor extracellular domain (HIR ECD) (human, UniProt P06213 28-956, limits assumed); assay: ELISA, HIR ECD plated (HIR receptor assay)
T1 construct: extracellular domain; Plated on 96-well dishes in the ELISA

[2] = target: T1, human insulin receptor extracellular …; assay: ELISA, HIR ECD plated; normalised with MW 150 kDa
Protocol: (§1) The COS-derived HIR Ab-HEXA fusion protein (also designated HIRMAb-HEXA), following purification with protein A affinity chromatography, was assessed for purity by reducing sodium dodecysulfate polyacrylamide gel electrophoresis (SDS-PAGE) as shown in FIG. 10. Only the HC and LC proteins are detected for either the HIRMAb alone or the HIRMAb-HEXA fusion protein. For the HIRMAb alone the higher molecular weight (MW) band is the HC and the lower MW band is the LC. For the HIRMAb-HEXA fusion protein, the higher MW band is the […]. The identity of the fusion protein was verified by Western blotting using primary antibodies to either human IgG (FIG. 11, left panel) or human HEXA (FIG. 11, right panel). The molecular weight (MW) of the HIRMAb-HEXA heavy and light chains are estimated by linear regression based on the migration of the MW standards. […] The affinity of the fusion protein for the HIR extracellular domain (ECD) was determined with an ELISA. […] The HIR ECD was plated on Nunc-Maxisorb 96 well dishes and the binding of the HIR Ab, or the HIR Ab-HEXA fusion protein, to the HIR ECD was detected with a secondary antibody, followed by binding with an alkaline phosphatase detector reagent. […]

[3] = target: T1, human insulin receptor extracellular …; assay: ELISA, recombinant HIR ECD plated; normalised with MW 150 kDa
Protocol: (§2) The potency of the CHO-derived fusion protein was assessed with the HIR ECD binding ELISA. The affinity of the fusion protein for the HIR extracellular domain (ECD) was determined with an ELISA. Recombinant HIR ECD was plated on Nunc-Maxisorb 96 well dishes and the binding of the HIR Ab, or the HIR Ab-PPT1 fusion protein, to the HIR ECD was detected with a secondary antibody, followed by binding with an alkaline phosphatase detector reagent. […] The MW of the HIR Ab is 150 kDa, and the MW of the HIR Ab-fusion protein is 246 kDa.

[4] = target: T1, human insulin receptor extracellular …; assay: ELISA, HIR ECD plated, biotinylated goat anti-human IgG detection
[5] = target: T1, human insulin receptor extracellular …; assay: ELISA, HIR ECD plated, secondary antibody and alkaline phosphatase detection
Protocol: as §1

[6] = target: T1, human insulin receptor extracellular …; assay: ELISA, recombinant HIR ECD plated, secondary antibody and alkaline phosphatase detection
Protocol: as §2

[7] = target: T1, human insulin receptor extracellular …; assay: ELISA, recombinant HIR ECD plated, secondary antibody and alkaline phosphatase detection; CHO-derived HIR Ab
Protocol: as §2, with “The” for “The potency of the CHO-derived fusion protein was assessed with the HIR ECD binding ELISA. The”, “Ab-ASM” for “Ab-PPT1”, “320” for “246”

[8] = target: T1, human insulin receptor extracellular …; assay: ELISA, recombinant HIR ECD plated; CHO-derived protein; normalised with MW 246 kDa
Protocol: as §2

[9] = target: T1, human insulin receptor extracellular …; assay: ELISA, recombinant HIR ECD plated, secondary antibody and alkaline phosphatase detection; CHO-derived protein
Protocol: as §2, with “The” for “The potency of the CHO-derived fusion protein was assessed with the HIR ECD binding ELISA. The”, “Ab-ASM” for “Ab-PPT1”, “320” for “246”
as §2

[10] = target: T1, human insulin receptor extracellular …; assay: ELISA, HIR ECD plated; CHO-derived protein
Protocol: The estimated MW of the hetero-tetrameric HIRMAb-HEXA fusion protein shown in FIG. 2 is 318 kDa, based on migration in the SDS-PAGE of the Western blot. The affinity of the fusion protein for the HIR extracellular domain (ECD) was determined with an ELISA. CHO cells permanently transfected with the HIR ECD were grown in serum free media (SFM), and the HIR ECD was purified with a wheat germ agglutinin affinity column, as previously described in Coloma et al. (2000) Pharm Res, 17:266-274. The HIR ECD was plated on Nunc-Maxisorb 96 well dishes and the binding of the HIR Ab, or the HIR Ab-HEXA fusion protein, to the HIR ECD was detected with a secondary antibody, followed by binding with an alkaline phosphatase detector reagent. […] The MW of the HIR Ab is 150 kDa, and the MW of the HIR Ab-fusion protein is 318 kDa.
The CHO line producing the HIR Ab-HEXA fusion protein was generated from CHO cells following 2 rounds of DC as described above. The accession cell line was propagated in a 2L shake flask in SFM on an orbital shaker and the CHO-derived fusion protein was purified by protein A affinity chromatography. […] The potency of the CHO-derived fusion protein as assessed with the HIR ECD binding ELISA, as described above.

[11] = target: T1, human insulin receptor extracellular …; assay: ELISA, HIR ECD plated; COS-derived protein; normalised with MW 318 kDa
Protocol: as §1

[12] = target: T1, human insulin receptor extracellular …; assay: ELISA, HIR ECD plated, secondary antibody and alkaline phosphatase detection; COS-derived protein
Protocol: as §1

[13] = target: T1, human insulin receptor extracellular …; assay: ELISA, recombinant HIR ECD plated; CHO-derived protein; normalised with MW 320 kDa
Protocol: as §2, with “The” for “The potency of the CHO-derived fusion protein was assessed with the HIR ECD binding ELISA. The”, “Ab-ASM” for “Ab-PPT1”, “320” for “246”

B1: chimeric HIR Ab (antibody to the human insulin receptor) (antibody, human IgG1, kappa)
heavy: not shown
light: DIQMTQSPSSLSASLGERVSLTCRASQDIGGNLYWLQQGPDGTIKRLIYATSSLDSGVPKRFSGSRSGSDYSLTISSLESEDFVDYYCLQYSSSPWTFGGGTKMEIKRTVAAPSVFIFPPSDEQLKSGTASVVCLLNNFYPREAKVQWKVDNALQSGNSQESVTEQDSKDSTYSLSSTLTLSKADYEKHKVYACEVTHQGLSSPVTKSFNRGEC
notes: also called HIRMAb; chimeric HIRMAb
EC50 [1]: 0.25 nM
EC50 [2]: 0.23 nM
EC50 [3]: 0.32 nM and 0.26 nM
EC50 [4]: 0.77 nM
EC50 [5]: 0.034 µg/mL
EC50 [6]: 0.039 µg/mL
EC50 [7]: 0.047 µg/mL

B2: HIR Ab-LL-PPT1 fusion protein (31-amino acid linker) (antibody, human IgG1, human IgG3, kappa)
heavy: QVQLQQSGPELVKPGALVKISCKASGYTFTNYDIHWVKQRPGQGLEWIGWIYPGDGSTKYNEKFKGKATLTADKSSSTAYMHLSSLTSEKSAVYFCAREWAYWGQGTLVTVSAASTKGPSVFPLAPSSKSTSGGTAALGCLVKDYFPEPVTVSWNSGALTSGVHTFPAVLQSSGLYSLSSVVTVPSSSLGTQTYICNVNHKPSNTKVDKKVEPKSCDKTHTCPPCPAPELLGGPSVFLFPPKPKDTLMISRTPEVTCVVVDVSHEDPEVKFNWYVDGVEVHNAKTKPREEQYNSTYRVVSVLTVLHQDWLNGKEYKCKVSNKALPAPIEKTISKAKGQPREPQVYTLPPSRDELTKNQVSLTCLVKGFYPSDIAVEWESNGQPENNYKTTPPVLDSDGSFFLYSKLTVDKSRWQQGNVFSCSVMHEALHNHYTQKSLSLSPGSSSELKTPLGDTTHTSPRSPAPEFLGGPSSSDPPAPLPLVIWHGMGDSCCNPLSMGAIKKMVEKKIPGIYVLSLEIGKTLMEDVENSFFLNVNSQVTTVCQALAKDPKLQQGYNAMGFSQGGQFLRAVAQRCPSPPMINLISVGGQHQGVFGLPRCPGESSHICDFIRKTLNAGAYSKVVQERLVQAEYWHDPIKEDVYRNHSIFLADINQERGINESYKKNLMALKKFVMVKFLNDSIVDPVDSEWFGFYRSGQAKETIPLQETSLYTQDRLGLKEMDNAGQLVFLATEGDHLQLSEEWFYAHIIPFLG
light: B1 light
notes: Hetero-tetramer, MW 246 kDa; The ELISA used CHO-derived protein; also called HIR Ab-PPT1; HIRMAb-PPT1
EC50 [8]: 0.38 nM
EC50 [9]: 0.094 µg/mL

B3: HIR Ab-HEXA fusion protein (antibody, human IgG1, human IgG3, kappa)
heavy: not shown
light: DIQMTQSPSSLSASLGERVSLTCRASQDIGGNLYWLQQGPDGTIKRLIYATSSLDSGVPKRFSGSRSGSDYSLTISSLESEDFVDYYCLQYSSSPWTFGGGTKMEIKRTVAAPSVFIFPPSDEQLKSGTASVVCLLNNFYPREAKVQWKVDNALQSGNSQESVTEQDSKDSTYSLSSTLTLSKADYEKHKVYACEVTHQGLSSPVTKSFNRGECSSSELKTPLGDTTHTSPRSPAPEFLGGPSSSLWPWPQNFQTSDQRYVLYPNNFQFQYDVSSAAQPGCSVLDEAFQRYRDLLFGSGSWPRPYLTGKRHTLEKNVLVVSVVTPGCNQLPTLESVENYTLTINDDQCLLLSETVWGALRGLETFSQLVWKSAEGTFFINKTEIEDFPRFPHRGLLLDTSRHYLPLSSILDTLDVMAYNKLNVFHWHLVDDPSFPYESFTFPELMRKGSYNPVTHIYTAQDVKEVIEYARLRGIRVLAEFDTPGHTLSWGPGIPGLLTPCYSGSEPSGTFGPVNPSLNNTYEFMSTFFLEVSSVFPDFYLHLGGDEVDFTCWKSNPEIQDFMRKKGFGEDFKQLESFYIQTLLDIVSSYGKGYVVWQEVFDNKVKIQPDTIIQVWREDIPVNYMKELELVTKAGFRALLSAPWYLNRISYGPDWKDFYIVEPLAFEGTPEQKALVIGGEACMWGEYVDNTNLVPRLWPRAGAVAERLWSNKLTSDLTFAYERLSHFRCELLRRGVQAQPLNVGFCEQEFEQT
notes: also called HIRMAb-HEXA; HIR Ab LC-HEXA + HIR Ab HC
EC50 [10]: 0.122 µg/mL
EC50 [11]: 0.35 nM
EC50 [12]: 0.112 µg/mL

B4: HIR Ab-ASM fusion protein (antibody, human IgG1, human IgG3, kappa)
heavy: not shown
light: DIQMTQSPSSLSASLGERVSLTCRASQDIGGNLYWLQQGPDGTIKRLIYATSSLDSGVPKRFSGSRSGSDYSLTISSLESEDFVDYYCLQYSSSPWTFGGGTKMEIKRTVAAPSVFIFPPSDEQLKSGTASVVCLLNNFYPREAKVQWKVDNALQSGNSQESVTEQDSKDSTYSLSSTLTLSKADYEKHKVYACEVTHQGLSSPVTKSFNRGECSSSELKTPLGDTTHTSPRSPAPEFLGGPSSSHPLSPQGHPARLHRIVPRLRDVFGWGNLTCPICKGLFTAINLGLKKEPNVARVGSVAIKLCNLLKIAPPAVCQSIVHLFEDDMVEVWRRSVLSPSEACGLLLGSTCGHWDIFSSWNISLPTVPKPPPKPPSPPAPGAPVSRILFLTDLHWDHDYLEGTDPDCADPLCCRRGSGLPPASRPGAGYWGEYSKCDLPLRTLESLLSGLGPAGPFDMVYWTGDIPAHDVWHQTRQDQLRALTTVTALVRKFLGPVPVYPAVGNHESTPVNSFPPPFIEGNHSSRWLYEAMAKAWEPWLPAEALRTLRIGGFYALSPYPGLRLISLNMNFCSRENFWLLINSTDPAGQLQWLVGELQAAEDRGDKVHIIGHIPPGHCLKSWSWNYYRIVARYENTLAAQFFGHTHVDEFEVFYDEETLSRPLAVAFLAPSATTYIGLNPGYRVYQIDGNYSGSSHVVLDHETYILNLTQANIPGAIPHWQLLYRARETYGLPNTLPTAWHNLVYRMRGDMQLFQTFWFLYHKGHPPSEPCGTPCRLATLCAQLSARADSPALCRHLMPDGSLPEAQSLWPRP
notes: Hetero-tetramer, MW 320 kDa; The ELISA used CHO-derived protein; also called HIRMAb-ASM; HIR Ab LC-ASM + HIR Ab HC
EC50 [13]: 0.93 nM
EC50 [9]: 0.299 µg/mL
